In patent US20160354480A1 (VECT HORUS, published 2016):
Values belong to the binder of their own block, whether it stands above or below them. Bridge positions count the residues as written; N and C are the ends. Square brackets hold non-standard residues; d marks the D form. Ends that are not written are not given here. * marks the point of attachment. Pen = CC(C)(S)[C@H](N)C(=O)O; Tle = CC(C)(C)[C@H](N)C(=O)O; Pip = O=C(O)[C@@H]1CCCCN1; Propionyl = CCC(=O)*; Sar = CNCC(=O)O

Key:
[1] = target: T1, human neurotensin receptor type 1 (human, UniProt P30989 1-418); assay: competition with [3H]-neurotensin on membranes of CHO cells expressing human NTR-1; Ki from mean IC50 by Cheng-Prusoff
T1 construct: whole, on cells; Used as cell membrane homogenates (0.5 ug/well), not intact cells; also called hNTR-1; Human NTR-1

[2] = target: T2, rat neurotensin receptor type 1 (rat, UniProt P20789 1-424); assay: competition with [3H]-neurotensin on membranes of HEK 293 cells expressing rat NTR-1; Ki from mean IC50 by Cheng-Prusoff
T2 construct: whole, on cells; Used as membrane homogenates of transfected HEK 293 cells (0.75 ug/well), not intact cells; also called rNTR-1; rNTR1
T2 sequence (P20789 whole entry): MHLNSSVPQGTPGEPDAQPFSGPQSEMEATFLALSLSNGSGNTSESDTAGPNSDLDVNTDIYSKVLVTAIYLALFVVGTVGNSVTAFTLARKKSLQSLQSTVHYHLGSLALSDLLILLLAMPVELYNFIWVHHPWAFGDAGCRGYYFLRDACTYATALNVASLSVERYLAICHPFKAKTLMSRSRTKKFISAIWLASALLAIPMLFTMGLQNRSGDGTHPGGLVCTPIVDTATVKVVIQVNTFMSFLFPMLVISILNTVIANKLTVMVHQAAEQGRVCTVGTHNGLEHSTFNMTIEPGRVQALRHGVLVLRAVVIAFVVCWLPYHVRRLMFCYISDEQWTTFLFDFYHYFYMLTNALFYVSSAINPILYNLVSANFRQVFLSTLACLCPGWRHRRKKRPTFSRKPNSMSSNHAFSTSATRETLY

T1 sequence (P30989 whole entry): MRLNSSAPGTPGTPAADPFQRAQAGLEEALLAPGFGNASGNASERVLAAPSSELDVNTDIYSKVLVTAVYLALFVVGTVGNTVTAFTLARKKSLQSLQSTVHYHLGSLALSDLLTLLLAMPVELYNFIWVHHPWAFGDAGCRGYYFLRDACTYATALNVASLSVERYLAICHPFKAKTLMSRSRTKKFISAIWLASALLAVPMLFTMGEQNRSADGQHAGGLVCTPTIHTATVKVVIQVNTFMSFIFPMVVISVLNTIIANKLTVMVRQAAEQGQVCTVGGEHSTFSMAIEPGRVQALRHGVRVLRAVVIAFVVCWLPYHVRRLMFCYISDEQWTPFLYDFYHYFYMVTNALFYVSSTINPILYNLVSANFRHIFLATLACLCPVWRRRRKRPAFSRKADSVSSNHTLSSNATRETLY

B1: compound XX, SEQ ID NO: 11-[Lys8, Tle12]NT(8-13) (peptide)
peptide: Propionyl-[dC]M[Pip]RLR[Sar][Pen]KRPY[Tle]L-OH
modifications: disulfide 1-8
SMILES: CCC(=O)N[C@@H]1CSSC(C)(C)[C@@H](C(=O)N[C@@H](CCCCN)C(=O)N[C@@H](CCCNC(=N)N)C(=O)N2CCC[C@H]2C(=O)N[C@@H](Cc2ccc(O)cc2)C(=O)N[C@H](C(=O)N[C@@H](CC(C)C)C(=O)O)C(C)(C)C)NC(=O)CN(C)C(=O)[C@H](CCCNC(=N)N)NC(=O)[C@H](CC(C)C)NC(=O)[C@H](CCCNC(=N)N)NC(=O)[C@@H]2CCCCN2C(=O)[C@H](CCSC)NC1=O
Ki [1]: 0.11 nM | Ki [2]: 0.08 nM

B2: compound XVI, SEQ ID NO: 9-[Lys8, Tle12]NT(8-13) (peptide)
peptide: Propionyl-[dC]M[Pip]RLR[Sar]CKRPY[Tle]L-OH
modifications: disulfide 1-8
SMILES: CCC(=O)N[C@@H]1CSSC[C@@H](C(=O)N[C@@H](CCCCN)C(=O)N[C@@H](CCCNC(=N)N)C(=O)N2CCC[C@H]2C(=O)N[C@@H](Cc2ccc(O)cc2)C(=O)N[C@H](C(=O)N[C@@H](CC(C)C)C(=O)O)C(C)(C)C)NC(=O)CN(C)C(=O)[C@H](CCCNC(=N)N)NC(=O)[C@H](CC(C)C)NC(=O)[C@H](CCCNC(=N)N)NC(=O)[C@@H]2CCCCN2C(=O)[C@H](CCSC)NC1=O
Ki [1]: 0.15 nM | Ki [2]: 0.12 nM

B4: compound XIX, SEQ ID NO: 9-[Lys8, Trp11, Tle12]NT(8-13) (peptide)
peptide: Propionyl-[dC]M[Pip]RLR[Sar]CKRPW[Tle]L-OH
modifications: disulfide 1-8
SMILES: CCC(=O)N[C@@H]1CSSC[C@@H](C(=O)N[C@@H](CCCCN)C(=O)N[C@@H](CCCNC(=N)N)C(=O)N2CCC[C@H]2C(=O)N[C@@H](Cc2c[nH]c3ccccc23)C(=O)N[C@H](C(=O)N[C@@H](CC(C)C)C(=O)O)C(C)(C)C)NC(=O)CN(C)C(=O)[C@H](CCCNC(=N)N)NC(=O)[C@H](CC(C)C)NC(=O)[C@H](CCCNC(=N)N)NC(=O)[C@@H]2CCCCN2C(=O)[C@H](CCSC)NC1=O
Ki [1]: 6.34 nM | Ki [2]: 0.03 nM

B5: compound XVII, SEQ ID NO: 9-[Lys9, Tle12]NT(8-13) (peptide)
peptide: Propionyl-[dC]M[Pip]RLR[Sar]CRKPY[Tle]L-OH
modifications: disulfide 1-8
SMILES: CCC(=O)N[C@@H]1CSSC[C@@H](C(=O)N[C@@H](CCCNC(=N)N)C(=O)N[C@@H](CCCCN)C(=O)N2CCC[C@H]2C(=O)N[C@@H](Cc2ccc(O)cc2)C(=O)N[C@H](C(=O)N[C@@H](CC(C)C)C(=O)O)C(C)(C)C)NC(=O)CN(C)C(=O)[C@H](CCCNC(=N)N)NC(=O)[C@H](CC(C)C)NC(=O)[C@H](CCCNC(=N)N)NC(=O)[C@@H]2CCCCN2C(=O)[C@H](CCSC)NC1=O
Ki [1]: 0.47 nM | Ki [2]: 0.19 nM

Binder: KRPY[Tle]L (X stands for Tle) [[Lys8, Tle12]NT(8-13)]
Ki [1]: 0.22 nM | Ki [2]: 0.68 nM

Binder: RKPY[Tle]L (X stands for Tle) [[Lys9, Tle12]NT(8-13)]
Ki [1]: 1.7 nM | Ki [2]: 4.2 nM

Binder: KRPW[Tle]L (X stands for Tle) [[Lys8, Trp11, Tle12]NT(8-13)]
Ki [1]: 13.8 nM | Ki [2]: 3.31 nM

Second part, the binder after the results:

Ki [1]: 0.4 nM | Ki [2]: 0.06 nM
B3: compound XV, SEQ ID NO: 9-[Tle12]NT(8-13) (peptide)
peptide: Propionyl-[dC]M[Pip]RLR[Sar]CRRPY[Tle]L-OH
modifications: disulfide 1-8
SMILES: CCC(=O)N[C@@H]1CSSC[C@@H](C(=O)N[C@@H](CCCNC(=N)N)C(=O)N[C@@H](CCCNC(=N)N)C(=O)N2CCC[C@H]2C(=O)N[C@@H](Cc2ccc(O)cc2)C(=O)N[C@H](C(=O)N[C@@H](CC(C)C)C(=O)O)C(C)(C)C)NC(=O)CN(C)C(=O)[C@H](CCCNC(=N)N)NC(=O)[C@H](CC(C)C)NC(=O)[C@H](CCCNC(=N)N)NC(=O)[C@@H]2CCCCN2C(=O)[C@H](CCSC)NC1=O

Ki [1]: 3.1 nM | Ki [2]: 0.85 nM
Binder: RRPW[Tle]L (X stands for Tle) [[Trp11, Tle12]NT(8-13)]

Ki [1]: 0.13 nM
B6: compound X, SEQ ID NO: 9-GGG-NT(6-13) (peptide)
peptide: Propionyl-[dC]M[Pip]RLR[Sar]CGGGKPRRPYIL-OH
modifications: disulfide 1-8
SMILES: CCC(=O)N[C@@H]1CSSC[C@@H](C(=O)NCC(=O)NCC(=O)NCC(=O)N[C@@H](CCCCN)C(=O)N2CCC[C@H]2C(=O)N[C@@H](CCCNC(=N)N)C(=O)N[C@@H](CCCNC(=N)N)C(=O)N2CCC[C@H]2C(=O)N[C@@H](Cc2ccc(O)cc2)C(=O)N[C@H](C(=O)N[C@@H](CC(C)C)C(=O)O)[C@@H](C)CC)NC(=O)CN(C)C(=O)[C@H](CCCNC(=N)N)NC(=O)[C@H](CC(C)C)NC(=O)[C@H](CCCNC(=N)N)NC(=O)[C@@H]2CCCCN2C(=O)[C@H](CCSC)NC1=O

Ki [1]: 2.98 nM | Ki [2]: 0.02 nM
B7: compound XVIII, SEQ ID NO: 9-[Trp11, Tle12]NT(8-13) (peptide)
peptide: Propionyl-[dC]M[Pip]RLR[Sar]CRRPW[Tle]L-OH
modifications: disulfide 1-8
SMILES: CCC(=O)N[C@@H]1CSSC[C@@H](C(=O)N[C@@H](CCCNC(=N)N)C(=O)N[C@@H](CCCNC(=N)N)C(=O)N2CCC[C@H]2C(=O)N[C@@H](Cc2c[nH]c3ccccc23)C(=O)N[C@H](C(=O)N[C@@H](CC(C)C)C(=O)O)C(C)(C)C)NC(=O)CN(C)C(=O)[C@H](CCCNC(=N)N)NC(=O)[C@H](CC(C)C)NC(=O)[C@H](CCCNC(=N)N)NC(=O)[C@@H]2CCCCN2C(=O)[C@H](CCSC)NC1=O
